In patent publication US20240115745A1, “COMPOUNDS COMPRISING A FIBROBLAST ACTIVATION PROTEIN LIGAND AND USE THEREOF” (3B PHARMACEUTICALS GMBH, priority 2021, published 2024):
Bridges are numbered along the chain shown (N, C = ends). [ ]: non-standard residue; d: D form. The star is where a group is joined. mli = maleimide cyclization element: 3,4-maleimide inserted symmetrically, forming a vinyl thioether with each Cys sulfur; Ttds = 1,13-diamino-4,7,10-trioxatridecan-succinamic acid, NCCCOCCOCCOCCCNC(=O)CCC(=O)*; mli(DOTA-Ttd) = 3,4-N-(DOTA-Ttd)-maleimide bridging two Cys S atoms as vinyl thioethers; DOTA = O=C(O)CN1CCN(CC(=O)O)CCN(CC(=O)*)CCN(CC(=O)O)CC1; Nle = CCCC[C@H](N)C(=O)O; Hexanoyl = CCCCCC(=O)*

B1: compound DOTA-Ttds-Nle-[Cys(mli)-Pro-Pro-Thr-Glu-Phe-Cys]-Asp-NH2 (2007) (peptide)
peptide: {DOTA-Ttds}-[Nle]CPPTEFCD-NH2
modifications: linker 2-8 via mli
B2: compound Hex-[Cys(mli(DOTA-Ttd))-Pro-Pro-Thr-Glu-Phe-Cys]-Asp-NH2 (2020) (peptide)
peptide: Hexanoyl-CPPTEFCD-NH2
modifications: linker 1-7 via mli(DOTA-Ttd)
B3: compound DOTA-Nle-[Cys-Pro-Pro-Thr-Glu-Phe-Cys]-Asp-NH2 (1004) (peptide)
peptide: CPPTEFCD
HELM: PEPTIDE1{[O=C(O)CN1CCN(CC(=O)O)CCN(CC(=O)[*:2])CCN(CC(=O)O)CC1].[Nle].C.P.P.T.E.F.C.D.[am]}$PEPTIDE1,PEPTIDE1,3:R3-9:R3$$$V2.0
SMILES: CCCC[C@H](NC(=O)CN1CCN(CC(=O)O)CCN(CC(=O)O)CCN(CC(=O)O)CC1)C(=O)N[C@H]1CSSC[C@@H](C(=O)N[C@@H](CC(=O)O)C(N)=O)NC(=O)[C@H](Cc2ccccc2)NC(=O)[C@H](CCC(=O)O)NC(=O)[C@H]([C@@H](C)O)NC(=O)[C@@H]2CCCN2C(=O)[C@@H]2CCCN2C1=O
B4: compound DOTA-Ttds-Nle-[Cys-Pro-Pro-Thr-Glu-Phe-Cys]-Asp-NH2 (1003) (peptide)
peptide: {DOTA-Ttds}-[Nle]CPPTEFCD-NH2
modifications: disulfide 2-8

target: fibroblast activation protein (FAP) on FAP-expressing human WI-38 fibroblasts (human), Q12884; assay: competitive FACS on WI-38 cells vs 3 nM Cy5-labeled probe; A = pIC50 >7.0; conditions: remark: other sources report otherwise

| Binder | pIC50 Category (FACS) |
| --- | --- |
| B1 | > 7 pIC50 |
| B2 | > 7 pIC50 |
| B3 | > 7 pIC50 |
| B4 | > 7 pIC50 |
